# Measured values: publication PMC4726246
# B1: TASK-1: N53A (protein)
# parent chain: MKRQNVRTLALIVCTFTYLLVGAAVFDALESEPELIERQRLELRQQELRARYNLSQGGYEELERVVLRLKPHKAGVQWRFAGSFYFAITVITTIGYGHAAPSTDGGKVFCMFYALLGIPLTLVMFQSLGERINTLVRYLLHRAKKGLGMRRADVSMANMVLIGFFSCISTLCIGAAAFSHYEHWTFFQAYYYCFITLTTIGFGDYVALQKDQALQTQPQYVAFSFVYILTGLTVIGAFLNLVVLRFMTMNAEDEKRDAEHRALLTRNGQAGGGGGGGSAHTTDTASSTAAAGGGGFRNVYAEVLHFQSMCSCLWYKSREKLQYSIPMIIPRDLSTSDTCVEQSHSSPGGGGRYSDTPSRRCLCSGAPRSAISSVSTGLHSLSTFRGLMKRRSSV
# B2: TASK-1: S55A (protein)
# parent chain: B1 parent chain
# How the values were obtained:
# [1] = TEVC, co-expression in Xenopus oocytes, +40 mV; settings: glycan lost; control: TASK-3 WT alone
# [2] = ratio of TEVC current to surface expression; settings: glycan lost; control: wild type
Protein,other: current of co-expressed TASK-3 [1],other: conductivity (current / surface expression ratio) [2]
B1,no change,no change
B2,,no change
